For test [1], the target named is T1, mouse TMPRSS6 expressed on HEK293T cells (MoTMPRSS6-(His)6) (mouse, UniProt Q9DBI0 1-811).
T1 construct: stably expressed in HEK293T cells; also called murine TMPRSS6
T1 sequence: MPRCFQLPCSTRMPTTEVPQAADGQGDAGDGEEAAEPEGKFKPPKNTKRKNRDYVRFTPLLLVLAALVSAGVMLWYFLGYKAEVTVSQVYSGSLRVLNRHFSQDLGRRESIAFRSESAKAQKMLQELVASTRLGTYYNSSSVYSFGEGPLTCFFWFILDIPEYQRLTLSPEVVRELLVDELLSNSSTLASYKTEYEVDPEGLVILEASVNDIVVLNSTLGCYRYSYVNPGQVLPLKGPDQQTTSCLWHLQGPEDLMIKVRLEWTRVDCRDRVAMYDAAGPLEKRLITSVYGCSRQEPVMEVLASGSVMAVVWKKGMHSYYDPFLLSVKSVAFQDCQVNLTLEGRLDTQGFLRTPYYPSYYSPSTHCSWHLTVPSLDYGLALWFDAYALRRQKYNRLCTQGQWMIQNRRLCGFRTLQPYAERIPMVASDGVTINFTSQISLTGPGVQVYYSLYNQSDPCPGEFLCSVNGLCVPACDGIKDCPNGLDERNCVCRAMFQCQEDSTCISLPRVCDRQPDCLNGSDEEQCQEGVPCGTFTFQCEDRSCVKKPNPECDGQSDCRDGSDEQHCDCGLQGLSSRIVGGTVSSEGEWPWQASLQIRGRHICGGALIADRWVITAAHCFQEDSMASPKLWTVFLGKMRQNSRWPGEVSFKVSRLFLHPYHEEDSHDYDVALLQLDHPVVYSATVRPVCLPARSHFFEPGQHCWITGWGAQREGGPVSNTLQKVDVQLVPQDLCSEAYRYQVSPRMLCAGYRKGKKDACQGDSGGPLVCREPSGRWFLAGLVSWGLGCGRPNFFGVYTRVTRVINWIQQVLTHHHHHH
Put plainly: cell surface ELISA on fixed HEK293T cells expressing mouse TMPRSS6. On the procedure: HEK293T cells stably expressing mouse TMPRSS6 (generated by LakePharma Inc as described above, FIGS. 4J, 4L, 4N, 4P, 4R, 4T) or cynomolgus monkey (generated in house as described above, FIGS. 4K, 4M, 4O, 4Q, 4S, 4U) were fixed with methanol (100%), and washed with dPBS (Dulbecco’s phosphate-buffered saline, Corning Cellgro) before incubation with various concentrations of anti-TMPRSS6 antibodies and their humanized variants diluted in BSA medium (DMEM + 1% Pen/Strep + 10 mM HEPES + 1 mg/ml BSA (Sigma-Aldrich)). Purified mouse IgG (FIGS. 4J-4O) or Human IgG1 (FIGS. 4P-4U) was used as a control. After incubation, cells were washed with BSA medium and then incubated with goat anti-mouse (Invitrogen, FIGS. 4J-4O) or anti-human (Millipore, FIGS. 4P-4U) IgG conjugated with HRP as a 2° antibody. Finally, cells were washed with dPBS to remove unbound antibody and color developed with ELISA liquid substrate (Sigma-Aldrich), followed by stopping the reaction with addition of the same volume of ELISA liquid substrate of 1 M H₂SO₄. Bound antibody was measured by absorbance at OD₄₅₀ₙₘ.
In general terms: In an ELISA, binding on a coated surface is turned into a signal by an enzyme label.

Test [2] deals with T2, matriptase (ST14) over-expressed in HEK293T cells (human, UniProt Q9Y5Y6 1-855).
T2 construct: also called matriptase-1
T2 sequence: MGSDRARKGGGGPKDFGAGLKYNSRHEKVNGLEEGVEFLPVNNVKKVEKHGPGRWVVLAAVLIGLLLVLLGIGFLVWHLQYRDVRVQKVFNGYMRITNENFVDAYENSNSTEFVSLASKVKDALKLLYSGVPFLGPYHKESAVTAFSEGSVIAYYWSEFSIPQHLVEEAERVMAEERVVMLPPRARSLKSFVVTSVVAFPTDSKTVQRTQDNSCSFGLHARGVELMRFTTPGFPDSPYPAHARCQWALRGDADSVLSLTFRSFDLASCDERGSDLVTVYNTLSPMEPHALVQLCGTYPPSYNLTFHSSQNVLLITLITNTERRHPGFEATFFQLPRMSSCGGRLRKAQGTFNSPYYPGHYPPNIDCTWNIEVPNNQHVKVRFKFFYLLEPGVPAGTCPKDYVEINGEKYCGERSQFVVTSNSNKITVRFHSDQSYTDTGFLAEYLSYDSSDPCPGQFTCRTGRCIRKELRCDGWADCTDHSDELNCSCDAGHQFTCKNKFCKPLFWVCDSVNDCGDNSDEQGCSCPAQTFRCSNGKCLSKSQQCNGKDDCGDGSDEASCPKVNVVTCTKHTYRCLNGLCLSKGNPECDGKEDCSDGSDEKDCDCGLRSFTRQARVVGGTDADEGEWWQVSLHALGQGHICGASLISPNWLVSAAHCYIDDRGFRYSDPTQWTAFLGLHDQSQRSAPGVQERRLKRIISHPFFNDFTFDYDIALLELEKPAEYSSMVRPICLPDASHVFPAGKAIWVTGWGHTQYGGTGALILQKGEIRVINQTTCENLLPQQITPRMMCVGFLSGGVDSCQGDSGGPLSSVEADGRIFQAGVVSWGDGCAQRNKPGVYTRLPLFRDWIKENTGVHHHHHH
Put plainly: FACS on permeabilized HEK293T cells over-expressing ST14. The source says: To determine if anti-TMPRSS6 antibodies bind to homologous matriptases, HEK293T cells over-expressing matriptase (ST14) (SEQ ID NO: 100) (FIGS. 5B, 5E, 5H, 5K, 5N, 5Q), and HEK293T cells over-expressing matriptase-3 (TMPRSS7) (SEQ ID NO: 101) (FIGS. 5C, 5F, 5I, 5L, 5O, 5R) were collected (generated in house). HEK293T cells stably expressing human TMPRSS6 (matriptase-2) (SEQ ID NO:97) (generated by LakePharma Inc as described above, FIGS. 5A, 5D, 5G, 5J, 5M, 5P) were used as a positive control and HEK293T cells (FIGS. 5A-5R) were used as a negative control (as described above). Cells were blocked and permeabilized with dPBS + 3% BSA + 0.1% Tween-20 before incubation with various anti-TMPRSS6 antibodies diluted in dPBS + 3% BSA + 0.1% Tween-20. Cells were incubated with anti-TMPRSS6 antibodies and their humanized variants at a concentration of roughly 1 µg/ml for 1 hr. After incubation, cells were washed with dPBS and incubated with goat anti-mouse IgG conjugated with AlexaFluor-488 (Invitrogen, FIGS. 5A-5I) or goat anti-human IgG conjugated with Allophycocyanin (APC) (Jackson Immuno Research, FIGS. 5J-5R) as a 2° antibody. At last, cells were washed with dPBS and re-suspended with dPBS + 1 mM EDTA, and then subjected to FACS analysis using a NOVOCYTE® Flow Cytometer. Bound antibody was determined by excitation at 488 nm and measurement of emission (FITC-A) at 530 nm (FIGS. 5A-5I) or by excitation at 640 nm and measurement of emission (APC-A) at 675 nm (FIGS. 5J-5R). Results for these assays are shown in histogram plots in FIGS. 5A-5R.

This note sets out measurements from patent US20230295345A1 (published 2023).

B1: MWTx-001 anti-TMPRSS6 antibody (antibody, mouse IgG2a, kappa, V domains shown)
VH: QVQLQQPGAELAKPGASVKMSCKASGYTFTSYWITWVKQRPGQDLEWIGNIYPGSGSTYYNEKFKSKATLTVDTSSRTAYMQLSSLTSADSAVYYCAPYDSDYAMDYWGQGTSVTVSS
VL: DIKMTQSPSSMYASLGERVTITCKASQDINNYLSWFQQKPGKSPKTLIYRANRLVDGVPSRVSGSGSGQDYSLTISSLEYEDVGIYFCLQYDEFPLTFGAGTKLELKR
notes: Mouse monoclonal antibody from a hybridoma (ATCC PTA-126759)
Take B1: the results for the binding result in test [1] and in test [2] were “binds” and “no binding (tested: roughly 1 µg/ml)”, respectively.

B2: hzMWTx-001Var anti-TMPRSS6 antibody (antibody, human IgG1, kappa, N297A, V domains shown)
VH: EVQLVQSGAEVKKPGASVKVSCKASGYTFTSYWITWVRQAPGQRLEWIGNIYPGSGSTYYNEKFKSKATITRDTSSRTAYMELSSLRSEDTAVYYCAPYDADYAMDYWGQGTLVTVSS
VL: DIQMTQSPSSLSASVGDRVTITCKASQDISNYLSWFQQKPGKAPKLLIYRANRLVEGVPSRFSGSGSGTDFTLTISSLQPEDFATYFCLQYDEFPLTFGGGTKVEIKR
notes: Humanized variant of MWTx-001, human IgG1/kappa
B2: the values for the binding result in test [1] and in test [2] were “binds” and “no binding (tested: roughly 1 µg/ml)”, respectively.

B3: MWTx-003 anti-TMPRSS6 antibody (antibody, mouse IgG2b, kappa, V domains shown)
VH: EVQLQQSGAELVKPGASVKLSCTASGFNIEDYYIHWVKERTEQGLEWIGRIDPEDGETTYAPQFQGKATIIPDTSSNTAYMQLSSLTSEDAAVYYCARSIYLDPMDYWGQGTSVTVSS
VL: DIVMTQSHKFMSTSVGDRVSITCKASQDVTTAVAWYQQKPGQSPKILIYWATTRHTGVPDRFTGSISGTTYILTISSVQAEDLALYYCQQHYSTPYTFGGGTKLEIKR
notes: Mouse monoclonal antibody from a hybridoma (ATCC PTA-126761); also called r4K12B (recombinantly expressed version, same HC and LC)
As for B3, the binding result is “binds” in test [1] and “no binding (tested: roughly 1 µg/ml)” in test [2].

B4: hzMWTx-002Var anti-TMPRSS6 antibody (antibody, human IgG1, kappa, N297A, V domains shown)
VH: EVQLVQSGAEVKKPGASVKVSCKASGFNIKDYYIHWVRQATGQGLEWMGRIDPEDAESEYAPKFQGRVTITADTSTDTAYMELSSLRSEDTAVYYCTRGDSMMVTYFDYWGQGTLVTVSS
VL: DIQMTQSPSSLSASVGDRVTITCKASQDVSTAVAWYQQKPGKAPKLLIYWAFTRHTGVPSRFSGSGSGTDYALTISSLQPEDFATYYCQQHYRSPWTFGGGTKVEIKR
notes: Humanized variant of MWTx-002, human IgG1/kappa
In the case of B4, the binding result in test [1] is “no binding”; in test [2], “no binding (tested: roughly 1 µg/ml)”.

B5: hzMWTx-003Var anti-TMPRSS6 antibody (antibody, human IgG1, kappa, L234A L235A, V domains shown)
VH: QVQLVQSGAEVKKPGASVKVSCKASGFNIEDYYMHWVRQAPGQRLEWMGRIDPEDAETTYSPKFQGRVTIIPDTSANTAYMELSSLRSEDTAVYYCARSIYLDPMDYWGQGTLVTVSS
VL: DIQMTQSPKSLSASVGDRVTITCRASQDVTTALAWYQQKPGQSPKLLIYWATTRHSGVPSRFSGSGSGTDFTLTISSLQPEDFATYYCQQHYSTPYTFGQGTKLEIKR
notes: Humanized variant of MWTx-003, human IgG1/kappa
As for B5, the binding result in test [1] was “binds”; in test [2], “no binding (tested: roughly 1 µg/ml)”.

B6: MWTx-002 anti-TMPRSS6 antibody (antibody, mouse IgG2b, kappa, V domains shown)
VH: EVQLQQSGAELVKPGASVKLSCTASGFNIKDYYIHWVKERTEQGLEWFGRIDPEDGESEYAPKFQGKATLTADTSSNTAYLQLSSLTSEDTAVYYCTRGDSMMVTYFDYWGQGTTLTVSS
VL: DIVMTQSHKFMSTSVGDRVSITCKASQDVSTAVAWYQQKPGQSPKLLIYWAFTRHTGVPDRFTSTGSGTDYALTISSVQAEDLALYYCQQHYRSPWTFGGGTKLEIKR
notes: Mouse monoclonal antibody from a hybridoma (ATCC PTA-126760)
On to B6, for which the binding result in test [2] is recorded as “no binding (tested: roughly 1 µg/ml)”.
